± gives the standard deviation.
Test: protein stability index of a GFP-peptide fusion (GPS, HEK-293T) (PSI 1-6); higher = more stable
[1] = treatment: DMSO, c terminus: a fixed tail appended
[2] = treatment: MLN4924 1 uM, 8 h, c terminus: a fixed tail appended
[3] = treatment: DMSO, c terminus: native
[4] = treatment: MLN4924 1 uM, 8 h, c terminus: native
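Note: 24-mer peptide tiles fused after GFP, lentivirally expressed, FACS-sorted into six equal bins by GFP/DsRed ratio, decoded by Illumina sequencing, PSI is the read-weighted mean bin number.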

Row | Sequence | protein stability index [1] | protein stability index [2] | protein stability index [3] | protein stability index [4]
1 | CDKHSKLFEEPEDPSNRSFFSEII [PPP2R2C] | 3.36 ± 0.17 | 3.57 ± 0.2 | – | –
2 | CEYETRLPGNHSTSQEIFRQRFRH [ZNF232] | 3.48 ± 0.25 | 3.4 ± 0.17 | – | –
3 | CKACITRWWEDLERDFPCPVCRKT [TRIM39] | 3.97 ± 0.27 | 4.25 ± 0.62 | – | –
4 | CLDSPGPLDSKENLENPMRRIHSL [CDC25A] | 4.27 ± 0.19 | 3.91 ± 0.26 | – | –
5 | CLFSLINGDDMFVTFAAMQAQQGR [MCOLN1] | 2.97 ± 0.47 | 2.74 ± 0.66 | – | –
6 | CLGSLASKLSRKYVKAKKSIDKDE [FAN1] | 2.7 ± 0.16 | 2.94 ± 0.4 | – | –
7 | CLMGLAETPGCATLLPASLFVNSH [DCAF4] | 2.35 ± 0.3 | 2.35 ± 0.34 | – | –
8 | CNCALEELRLVFGPLGDQLHAQLR [ELF3] | 2.46 ± 0.86 | 2.33 ± 0.38 | – | –
9 | CPVPAHRRGSWRLPYTDGLSWELL [CTBP1-DT] | 2.49 ± 0.34 | 2.59 ± 0.31 | – | –
10 | CQEEQLRSHENKLRQLTAELAEHR [PSD2] | 4.41 ± 0.25 | 4.34 ± 0.16 | – | –
11 | CQPRNLDKERAVLLQRRKRENMSD [KMT2E] | 4.32 ± 0.13 | 4.29 ± 0.12 | – | –
12 | CQSVLEDFNLCLFYLPSSPNLSLA [SMG5] | 2.5 ± 0.65 | 2.72 ± 0.63 | – | –
13 | CWSRDGHKLVSASTDNIVSQWDVL [RBBP5] | 2.81 ± 0.12 | 2.87 ± 0.18 | – | –
14 | CYVSRRLSQLSSHDPLWRRHCKKY [FBXO3] | 2.32 ± 0.12 | 2.4 ± 0.23 | – | –
15 | DAPVPDCLGVHCDFHQGLLSFYNA [FSD1] | 2.41 ± 0.094 | 2.52 ± 0.26 | – | –
16 | DDAVAGDFALINKLDIQCDLKTLS [ATE1] | 4.18 ± 0.34 | 4 ± 0.17 | – | –
17 | DDSGKDKKKKTKKIKEKYIDQEEL [HSP90AB1] | 5.39 ± 0.29 | 5.37 ± 0.32 | – | –
18 | DDVEMKNGITQGDKLRALKSQRQP [CDC14A] | 4.91 ± 0.25 | 5.05 ± 0.25 | – | –
19 | DDVRLLCHLTPSIYTEFPDETLRS [INTS3] | 3.41 ± 0.2 | 3.49 ± 0.54 | – | –
20 | DEAELDYLMDVLVGTQALERPPGP [SERTAD1] | 3.74 ± 0.35 | 3.87 ± 0.33 | – | –
21 | DEGFIKEEERPLPEKEYQRQVWLL [KCNA1] | 3.8 ± 0.28 | 3.73 ± 0.24 | – | –
22 | DEMQEVPNRVLAPEQSLKKTKTSE [SPANXN3] | 5.57 ± 0.2 | 5.59 ± 0.24 | – | –
23 | DEQAPQRQRLLADLLHNVSQNIAA [DFFB] | 3.72 ± 0.16 | 3.58 ± 0.31 | – | –

Row | Sequence | protein stability index [1] | protein stability index [2] | protein stability index [3] | protein stability index [4]
24 | DESLCPQHHEALSLFCYEDQEAVC [TRIM39] | 4.7 ± 0.057 | 4.69 ± 0.16 | – | –
25 | DFLCLLGVSYTFDNEDSELNGDYG [MIA2] | 2.24 ± 0.39 | 2.34 ± 0.44 | – | –
26 | DGSKSEDELDQASTPTDVRDIDL [CCND2] | – | – | 4.41 ± 0.26 | 4.71 ± 0.33
27 | DHPLPEVAHVKHLSASQKALKEKE [COX4I1] | 5.43 ± 0.18 | 5.47 ± 0.17 | – | –
28 | DIIRKQVLGTKVDAERDGVKVPTT [CDC34] | 4.2 ± 0.34 | 4.23 ± 0.17 | – | –
29 | DISETFNHANGLTLVSRAHQLVME [PPP2CA] | 2.79 ± 0.12 | 2.82 ± 0.29 | – | –
30 | DKDENKLSEASGGRAENGERSDLE [ZC3H15] | 5.45 ± 0.24 | 5.45 ± 0.28 | – | –
31 | DKELLCCSCQADPRHQGHRVQPVK [TRIM35] | 3.56 ± 0.32 | 4.06 ± 0.3 | – | –
32 | DKKVRTIIIRSEVPGIFCAGADLK [AUH] | 2.12 ± 0.27 | 2.11 ± 0.38 | – | –
33 | DLPKAKTRAADLLVNPLDPRNADK [SRPK2] | 4.85 ± 0.24 | 5 ± 0.29 | – | –
34 | DLRHLRAVPTDEARAFAEKNGLSF [RAB11A] | 3.54 ± 0.2 | 3.52 ± 0.22 | – | –
35 | DLRHLRAVPTDEARAFAEKNNLSF [RAB11B] | 3.63 ± 0.15 | 3.54 ± 0.23 | – | –
36 | DLVERALYSMECAFHPLFSLTSGA [TCF25] | 3.09 ± 1.3 | 2.84 ± 0.93 | – | –
37 | DMENKENGSVGVKNSMENGRPPDP [SAMD13] | 5.11 ± 0.27 | 5.15 ± 0.32 | – | –
38 | DPACYEFLWGPRALIETSYVKVLH [MAGEA6] | 2.26 ± 0.78 | 2.21 ± 0.22 | – | –
39 | DPDFKDLGALKPLPACEFEMGGSE [NETO1] | 5.24 ± 0.22 | 5.27 ± 0.2 | – | –
40 | DPLSDSDSMTSQAKPEALSSPKFR [ELOA2] | 5.2 ± 0.23 | 5.27 ± 0.17 | – | –
41 | DPPSSSEECPAHLLEDPLCADVIL [RHOBTB2] | 4.89 ± 0.21 | 5.11 ± 0.23 | – | –
42 | DPSTGCYMYYFQYLSKTYCVDATR [KMT5A] | 2.25 ± 0.34 | 2.18 ± 0.61 | – | –
43 | DQDDRRTWDGRPLTMAATFDDCLY [GFOD1] | 3.74 ± 0.34 | 3.99 ± 0.22 | – | –
44 | DQNNVIENEETGEFSIDNYPTDNT [MIA2] | 5.21 ± 0.74 | 5.5 ± 0.17 | – | –
45 | DQTKSIVEKIQAKLPGIAKKKAE [RTN3] | – | – | 5.46 ± 0.17 | 5.56 ± 0.22
46 | DRFQVPTTEVNAWLVHRDPEGSVS [NFE2L1] | 3.842 ± 0.034 | 4.5 ± 0.063 | – | –

Row | Sequence | protein stability index [1] | protein stability index [2] | protein stability index [3] | protein stability index [4]
47 | DRKVLLKSDSPTGDVLLDETLKHI [GOLPH3L] | 4.17 ± 0.16 | 4.54 ± 0.3 | – | –
48 | DSAQVARLWGIRKNRPAMNYDKLS [SPDEF] | 3.24 ± 0.22 | 3.35 ± 0.23 | – | –
49 | DSDFRELHTAREFSEEDEEETTSQ [RTN2] | 5.64 ± 0.17 | 5.5 ± 0.17 | – | –
50 | DSIKTEVSGCPEDLTVGRAPTADD [NOL4L] | 5.63 ± 0.34 | 5.68 ± 0.15 | – | –
51 | DSRIRFGFLTVTNLGVENMNHYKK [PTPN9] | 2.53 ± 0.19 | 2.7 ± 0.31 | – | –
52 | DVHNRIVIRGLNTIPLFVQLLYSP [CTNNB1] | 2.58 ± 0.58 | 2.73 ± 0.5 | – | –
53 | DVNKTDHSQRTALHLAAQKALRTI [INVS] | 3.06 ± 0.42 | 3.44 ± 0.43 | – | –
54 | DYDLVLAEDEEMNRMHESMKLFDS [GNAI1] | 4.42 ± 0.26 | 4.84 ± 0.33 | – | –
55 | DYLPLTALVDGQIFCLHGGLSPSI [PPP2CA] | 2.58 ± 0.93 | 2.21 ± 0.41 | – | –
56 | DYNPPRVQLSDEMFVFQDGRWVNE [CBY2] | 4.48 ± 0.23 | 4.37 ± 0.36 | – | –
57 | DYSPYFKTIEDLRNKIIAATIENA [KRT16] | 2.33 ± 0.22 | 2.44 ± 0.42 | – | –
58 | DYWNLQKDYYPINESLASLPLRVS [CLPTM1] | 2.4 ± 0.2 | 2.52 ± 0.17 | – | –
59 | EAELRRRDTFYKEQLERIERKNAE [CHCHD6] | 5.1 ± 0.41 | 5.34 ± 0.28 | – | –
60 | EAFTLMDQNRDGFIDKEDLKDTYA [MYL5] | 4.69 ± 0.25 | 4.88 ± 0.11 | – | –
61 | EANSSNSQKNEKALTNIQNCMAEK [C8orf76] | 4.96 ± 0.38 | 4.58 ± 0.37 | – | –
62 | EARPIETYQVHDYLRSKLCSLYEN [PPP2R2C] | 2.7 ± 0.19 | 3.02 ± 0.33 | – | –
63 | EAVFGKYGRIVEVLLMKDRETNKS [RBMX] | 2.53 ± 0.29 | 2.85 ± 0.52 | – | –
64 | EDDALSDKHGCPAYVSPEILNTTG [TRIB1] | 4.97 ± 0.24 | 4.95 ± 0.072 | – | –
65 | EDGKTCRRKDVCQAIDHGCEHICV [MATN2] | 3.82 ± 0.2 | 4.24 ± 0.28 | – | –
66 | EDKENYKKFYEAFSKNLKLGIHED [HSP90AB1] | 4.08 ± 0.34 | 4.22 ± 0.25 | – | –
67 | EDMLLPLAWRIVNDTYRTDLCLLY [CCNC] | 2.76 ± 0.57 | 2.59 ± 0.38 | – | –
68 | EDSLGCLTADTKEVTASQEARGLR [IRX6] | 5.34 ± 0.25 | 5.3 ± 0.27 | – | –
69 | EDSRTSKESMSEADRAQKMDGESE [EHMT1] | 5.5 ± 0.33 | 5.64 ± 0.23 | – | –

Row | Sequence | protein stability index [1] | protein stability index [2] | protein stability index [3] | protein stability index [4]
70 | EDSVSRLEKEIEVLERGDSAPATA [PALM] | 5.49 ± 0.23 | 5.47 ± 0.18 | – | –
71 | EECTDLQKEGEFSTCFTELQRDFL [OAS1] | 4.5 ± 0.32 | 4.52 ± 0.47 | – | –
72 | EEEEEEEDEDDDSADMDESDEDDE [FBXO3] | 5.37 ± 0.12 | 5.38 ± 0.15 | – | –
73 | EEIKKLTTDPDLILEVLRSSPMVQ [LARP4] | 2.39 ± 0.7 | 2.64 ± 0.64 | – | –
74 | EEKSKQFLDLMETIDKQREEMAKS [LRRC45] | 5.28 ± 0.25 | 5.3 ± 0.16 | – | –
75 | EEKSVKNTSIRVADFGSATFDHEH [CLK3] | 5.1 ± 0.11 | 5.07 ± 0.21 | – | –
76 | EENIMKSNIDKKFSAHYDAVEAEL [FAM50A] | 4.98 ± 0.19 | 5.08 ± 0.083 | – | –
77 | EGAFGEHGSQGTYSNTKENGINGE [MAP2] | 5.19 ± 0.31 | 5.25 ± 0.17 | – | –
78 | EGAQLGENKPSTCSFSIERILGLD [HESX1] | 2.92 ± 0.18 | 3.11 ± 0.1 | – | –
79 | EGHSPGNLPKFCHECGTKYPVEWA [ZC2HC1A] | 2.91 ± 0.25 | 2.97 ± 0.28 | – | –
80 | EHLEILQKEDVKPYQVNGVNPAYP [ETS1] | 4.1 ± 0.11 | 4.05 ± 0.28 | – | –
81 | EHPEALSCLLLQLRREKPSEEMVK [INTS3] | 3.38 ± 0.43 | 3.57 ± 0.26 | – | –
82 | EIARREKELEARVRKPAEAERYKL [FLOT1] | 4.4 ± 0.1 | 4.45 ± 0.22 | – | –
83 | EIIELRRTVNALEIELQAQHNLRY [KRT33B] | 2.21 ± 0.22 | 2.08 ± 0.14 | – | –
84 | EISAYRKLLQGEEERLKLSPSPSS [LMNB1] | 3.78 ± 0.37 | 4.16 ± 0.61 | – | –
85 | EKLCIYTDNSIKPQELLEWELVVL [CCND2] | 2.57 ± 0.58 | 2.62 ± 0.6 | – | –
86 | EKPYGCIDCGKAFSQKSCLVAHQR [ZNF649] | 2.81 ± 0.07 | 2.99 ± 0.28 | – | –
87 | EKWAEGGGHSRERADEPQWSLYPS [CHGB] | 4.28 ± 0.22 | 4.24 ± 0.064 | – | –
88 | EKYGRAHPVFYQGTYSQALNDAKR [FAF2] | 3.28 ± 0.15 | 3.47 ± 0.37 | – | –
89 | ELDDPGQPVSLRRRKREVLVEDMV [ZNF24] | 4.66 ± 0.12 | 4.68 ± 0.17 | – | –
